One substance from publication PMC5993529 can be followed below.

The target in assay [1] is Recombinant human VEGFR2 (human) (UniProt P35968). Kind of assay: SPR. Background: In SPR one partner is held on a chip, and binding of the other changes the refractive index at the surface.
Assay [2] addresses Recombinant human VEGFR1 (human) (UniProt P17948). Kind of assay: SPR.
Sequence of UniProt P17948 (P17948 27-758): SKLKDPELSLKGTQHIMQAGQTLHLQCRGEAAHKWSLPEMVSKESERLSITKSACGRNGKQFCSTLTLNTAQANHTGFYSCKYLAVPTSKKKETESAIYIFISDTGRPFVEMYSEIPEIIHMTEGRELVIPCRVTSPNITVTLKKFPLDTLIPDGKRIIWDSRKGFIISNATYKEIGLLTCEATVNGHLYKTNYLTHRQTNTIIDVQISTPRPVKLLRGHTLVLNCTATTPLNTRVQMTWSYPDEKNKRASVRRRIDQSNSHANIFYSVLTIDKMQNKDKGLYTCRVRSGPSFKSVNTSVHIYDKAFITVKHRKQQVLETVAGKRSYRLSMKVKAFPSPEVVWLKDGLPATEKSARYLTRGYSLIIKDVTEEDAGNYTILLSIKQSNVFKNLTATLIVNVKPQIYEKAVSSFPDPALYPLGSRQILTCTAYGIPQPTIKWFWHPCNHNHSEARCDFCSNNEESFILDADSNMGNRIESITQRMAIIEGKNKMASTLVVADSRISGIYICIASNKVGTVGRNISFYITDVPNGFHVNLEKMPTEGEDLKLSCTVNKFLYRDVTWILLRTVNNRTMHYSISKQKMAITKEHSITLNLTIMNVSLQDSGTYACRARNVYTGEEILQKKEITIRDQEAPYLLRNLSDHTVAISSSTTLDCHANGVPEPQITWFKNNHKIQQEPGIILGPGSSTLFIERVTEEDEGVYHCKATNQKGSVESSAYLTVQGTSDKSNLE

Sequence of UniProt P35968 (P35968 20-764): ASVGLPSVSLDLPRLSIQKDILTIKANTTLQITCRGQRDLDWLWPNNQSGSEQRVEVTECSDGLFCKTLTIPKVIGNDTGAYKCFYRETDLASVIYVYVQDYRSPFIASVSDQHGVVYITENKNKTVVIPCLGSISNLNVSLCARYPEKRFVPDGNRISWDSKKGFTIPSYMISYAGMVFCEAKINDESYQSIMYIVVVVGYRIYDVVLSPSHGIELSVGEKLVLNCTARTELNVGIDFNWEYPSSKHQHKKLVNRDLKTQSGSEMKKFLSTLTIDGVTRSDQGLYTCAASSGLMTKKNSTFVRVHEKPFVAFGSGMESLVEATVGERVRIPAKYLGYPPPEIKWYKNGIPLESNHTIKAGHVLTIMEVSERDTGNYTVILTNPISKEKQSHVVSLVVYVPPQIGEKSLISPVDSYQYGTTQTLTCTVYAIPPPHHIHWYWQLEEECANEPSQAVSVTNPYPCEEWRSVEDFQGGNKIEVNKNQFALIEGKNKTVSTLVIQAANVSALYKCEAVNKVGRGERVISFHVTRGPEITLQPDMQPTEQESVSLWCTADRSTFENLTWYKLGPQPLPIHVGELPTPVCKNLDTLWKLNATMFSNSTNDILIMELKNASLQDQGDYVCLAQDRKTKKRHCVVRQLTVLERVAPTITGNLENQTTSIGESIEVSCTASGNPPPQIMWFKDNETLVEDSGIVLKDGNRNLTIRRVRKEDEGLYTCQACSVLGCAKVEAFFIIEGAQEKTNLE

For “Recombinant human VEGFA (from UniProt P15692 1-395) (ligand)”, the figures for the equilibrium dissociation constant (Kd) in assay [1] and in assay [2] were 398 pM and 23.1 pM, respectively.

The term Kd denotes the equilibrium constant for the complex coming apart.
